Experimental findings from US20240002517A1 are described below.

Experiment [1] has as its target G-CSF-R (Homo sapiens (Human)) (UniProt Q99062). The experiment can be described thus: potency ELISA, plate coated with G-CSFR, HRP detection, parallel line analysis; 120 mg/mL formulation, 9 months at 25 C. Background: ELISA stands for enzyme-linked immunosorbent assay.
For experiment [2] the target is unchanged. The experiment can be described thus: potency ELISA, plate coated with G-CSFR, HRP detection, parallel line analysis; 120 mg/mL formulation, 0 months at 5 C.
For experiment [3] the target is unchanged. Kind of experiment: potency ELISA, plate coated with G-CSFR, HRP detection, parallel line analysis; 120 mg/mL formulation, 12 months at 5 C.
Experiment [4] has the same target. The experiment can be described thus: potency ELISA, plate coated with G-CSFR, HRP detection, parallel line analysis; 120 mg/mL formulation, 12 months at 25 C.
For experiment [5] the target is unchanged. Kind of experiment: potency ELISA, plate coated with G-CSFR, HRP detection, parallel line analysis; 120 mg/mL formulation, 3 months at 5 C.
Experiment [6] has the same target. Kind of experiment: potency ELISA, plate coated with G-CSFR, HRP detection, parallel line analysis; 120 mg/mL formulation, 18 months at 25 C.
For experiment [7] the target is unchanged. Kind of experiment: potency ELISA, plate coated with G-CSFR, HRP detection, parallel line analysis; 120 mg/mL formulation, 24 months at 5 C.
For experiment [8] the target is unchanged. Kind of experiment: potency ELISA, plate coated with G-CSFR, HRP detection, parallel line analysis; 120 mg/mL formulation, 6 months at 5 C.
The target is the same in experiment [9]. Kind of experiment: potency ELISA, plate coated with G-CSFR, HRP detection, parallel line analysis; 120 mg/mL formulation, 18 months at 5 C.
The target is the same in experiment [10]. Kind of experiment: potency ELISA, plate coated with G-CSFR, HRP detection, parallel line analysis; 120 mg/mL formulation, 0 months at 25 C.
The target is the same in experiment [11]. Kind of experiment: potency ELISA, plate coated with G-CSFR, HRP detection, parallel line analysis; 120 mg/mL formulation, 9 months at 5 C.
For experiment [12] the target is unchanged. Kind of experiment: potency ELISA, plate coated with G-CSFR, HRP detection, parallel line analysis; 120 mg/mL formulation, 6 months at 25 C.
For experiment [13] the target is unchanged. The experiment can be described thus: potency ELISA, plate coated with G-CSFR, HRP detection, parallel line analysis; 120 mg/mL formulation, 3 months at 25 C.

As to CSL324 (antibody), the potency relative to reference standard in experiment [1] amounted to 99%; in experiment [2], 108%; in experiment [3] it was 107%; in [4] it was 96%; in experiment [5], 116%; in experiment [6], 96%. The potency relative to reference standard turned out to be 103% in [7]; 108% in [8]; 100% in experiment [9]; 108% in experiment [10]; 108% in [11]; 109% in experiment [12]. Further, the potency relative to reference standard in experiment [13] was 109%.
